These results are taken from publication PMC9873692 (2023).

B1: P2 domain of the histidine kinase CheA (domain or fragment)
chain: GFKTFYIKVILKEGTQLKSARIYLVFHKLEELKCEVVRTIPSVEEIEEEKFENEVELFVISPVDLEKLSEALSSIADIERVIIKEV
modifications: biotin (in vivo biotinylation, AviTag)
B2: CheY protein from Thermotoga maritima (natural protein)
chain: MGKRVLIVDDAAFMRMMLKDIITKAGYEVAGEATNGREAVEKYKELKPDIVTMDITMPEMNGIDAIKEIMKIDPNAKIIVCSAMGQQAMVIEAIKAGAKDFIVKPFQPSRVVEALNKVSK

Targets include Cheytin 4; Cheytin 3; Cheytin 2; Cheytin 1.
What all share (assay): ITC
Background: Isothermal titration calorimetry measures the heat released or taken up as one component is titrated into another.

Experiment [1] has as its target B1.

Regarding B1, the Kd with Cheytin 4 was 490 nM; in the experiment with Cheytin 3, 660 nM; with Cheytin 2, 110 nM; in the experiment with Cheytin 1 it was 220 nM.
Consider B2, for which the affinity in experiment [1], expressed as Kd, was 150 nM.

By Kd is commonly meant the concentration at which binding is half-saturated. Read a high Kd as weaker binding.
